In paper PMC12394722, “Regulatory role of the N-terminal intrinsically disordered region of the DEAD-box RNA helicase DDX3X in selective RNA recognition” one finds binding result and Kd data, which are given here for two molecules.

One may read the Kd as the concentration at which binding is half-saturated.

One series deals with DDX3X N-IDR (human, UniProt O00571 1-132). In words: NMR; 200 mM KCl; EMSA: 20 mM K-phosphate pH 7.0, 125 mM KCl, 1 mM DTT, 0.005% Tween-20, 10% glycerol (1 mM ATP-Mg for MBP-FL/Core-C), gel at room temperature; ITC: 20 mM K-phosphate pH 7.0, 50 mM KCl, 25 C; NMR: 200 mM KCl (also 120 mM), 10 C, 50 uM. The following applies: protein: recombinant; tags: His6-SUMO tag cleaved (Ulp1); label: 5'-FAM in EMSA; G4, heterogeneous.

The target in a further series is MBP-FL DDX3X (human, UniProt O00571 1-662). In words: EMSA; 1 mM ATP-Mg; peer review file prints 665; EMSA: 20 mM K-phosphate pH 7.0, 125 mM KCl, 1 mM DTT, 0.005% Tween-20, 10% glycerol (1 mM ATP-Mg for MBP-FL/Core-C), gel at room temperature; ITC: 20 mM K-phosphate pH 7.0, 50 mM KCl, 25 C; NMR: 200 mM KCl (also 120 mM), 10 C, 50 uM. The following applies: protein: recombinant; tags: N-terminal His6-MBP; chain copies: 2; label: 3'-FAM; blunt, self-complementary. (In general: A gel shift assay detects complexes by their altered migration in electrophoresis.)
MBP-FL DDX3X, sequence (O00571 whole entry): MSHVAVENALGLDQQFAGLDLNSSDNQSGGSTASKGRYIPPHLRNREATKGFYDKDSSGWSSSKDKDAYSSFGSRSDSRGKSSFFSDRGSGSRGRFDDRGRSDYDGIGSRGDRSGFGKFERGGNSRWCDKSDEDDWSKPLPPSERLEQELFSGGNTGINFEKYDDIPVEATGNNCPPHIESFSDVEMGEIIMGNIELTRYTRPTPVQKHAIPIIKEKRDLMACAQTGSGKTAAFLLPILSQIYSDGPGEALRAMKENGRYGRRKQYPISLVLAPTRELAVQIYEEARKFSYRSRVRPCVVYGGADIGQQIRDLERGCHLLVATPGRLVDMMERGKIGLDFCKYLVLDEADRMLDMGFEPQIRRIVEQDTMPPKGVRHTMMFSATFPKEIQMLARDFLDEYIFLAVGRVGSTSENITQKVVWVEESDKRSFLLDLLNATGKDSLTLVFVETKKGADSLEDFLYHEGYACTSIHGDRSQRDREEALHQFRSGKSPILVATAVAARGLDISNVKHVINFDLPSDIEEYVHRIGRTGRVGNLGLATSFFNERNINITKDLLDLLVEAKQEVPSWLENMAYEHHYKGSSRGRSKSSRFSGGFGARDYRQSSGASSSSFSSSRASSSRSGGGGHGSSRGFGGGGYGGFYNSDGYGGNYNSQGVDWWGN

DDX3X N-IDR, sequence (O00571 1-132): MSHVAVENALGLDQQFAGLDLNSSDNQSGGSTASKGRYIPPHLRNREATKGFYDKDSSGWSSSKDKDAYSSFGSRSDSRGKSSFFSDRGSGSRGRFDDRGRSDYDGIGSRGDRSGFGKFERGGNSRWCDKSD

As for GCUGACGGGCGCGGCGGGGGCGGCC (structured_RNA) [ODC1 279-303], the binding result with DDX3X N-IDR was “binds”.

B1: GC-14mer dsRNA-FAM (dsRNA)
RNA 1: GGGCGGGCCCGCCC
RNA 2: GGGCGGGCCCGCCC
As for B1, in the series with MBP-FL DDX3X, the Kd worked out at 655 ± 31 nM.
